Data as given in PMC6060171.

Molecular target: AcrIIA6 (anti-CRISPR protein of Streptococcus thermophilus virulent phage D1811, product of gene D1811_026) (Streptococcus thermophilus phage D1811)
Assay: SEC; gel filtration profile of purified AcrIIA6; size exclusion chromatography in 20 mM Hepes pH 7.5, 150 mM NaCl

**Q.** With “AcrIIA6 (anti-CRISPR protein of Streptococcus thermophilus virulent phage D1811, product of gene D1811_026) (natural protein)” as the substance, how does the stoichiometry N read?
**A.** The stoichiometry N was 2.
